# Experimental data from PMC4445282, “Alpha-L-Fucosidase Isoenzyme iso2 from Paenibacillus thiaminolyticus” (BMC Biotechnology, 2015).
# B1: α-L-fucosidase iso2 (Paenibacillus thiaminolyticus) (protein)
# chain: MRYRQVHLDFHTSEHISDIGRNFSKKNFQEMLQLGHVNSITVFAKCHHGWAYFPSATNEIHPRLDFDLLGAQIEAAHEIGVKVPIYISVGFDEKLAWEKPQWLMRDEADRMNWVDSFMKPGYHQFCLNTPYLDLVIEQVQEVVRKYDGDGIFLDIVGERTCYCTTCLKQMQADGLDPHNKEDVIANGRRIYANYTTRIREAIDAIKPGLPVFHNAGHIHQGRRDLMGMNSHLELESLPTGGWGYDHFPLSARYAQPTGFHFLGMTGKFHTFWGEFGGYKHPNALRYETALSLANGARCSIGDQLHPGGQMDRATYELIGKAYAEVEAKEAWCVNAVNLADVALLTVEAAGVQQESGAMYSGKVDMGAVRMLLEGKILFDIVDLESDWSGYKVLILPDSIVMKDTILPKVEAFLAAGGKVLASGRSGLNVELTRQMLPLGFTDSGLNPFRPDYFRPLCDGMANLGEAAYVMYGDGRRIELTDGTELGRREDPYFNRQAFRFCSHQHAPSSEQEGGPGMVESAQGIYIAWNVFEDYATKGSLILKEMVLFALRRLLGEQITLKTTLPAQGVTTLQHQAAERRYINHLLYASPVKRGERVEIIEDMIPLQQVEVQLQLPVTDVKRVYLAPQMTEIEFKASGGDVQFTVPQLECHQMVVVEYNE
# notes: His-tagged fusion from pET16b-αLF2 (NdeI/XhoI), tag kept; E. coli BL21(DE3); Ni-NTA; primers encode start MRYRQVH and end VVEYNE
# Substrate: C[C@@H]1O[C@@H](Oc2ccc([N+](=O)[O-])cc2)[C@@H](O)[C@H](O)[C@@H]1O
# Test: purified protein
# Format: biochemical, Paenibacillus thiaminolyticus
# Settings: 50 mM phosphate pH 7.0, 37 °C (standard assay), substrate 0.01-35 mmol/L
protein,measurement,value
B1,Km,520 ± 50 µM
same,kcat,111 ± 3 s⁻¹
same,kcat/Km,213 ± 30 (mmol/L)^-1 s^-1
